From US20220332804A1 (CSL INNOVATION, published 2022)

Columns and labels:
Experiment in all cases: SPR; KD relative to WT C2;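 further: biacore SPR at 37 °C, anti-C2 mAbs captured on an anti-human IgG chip, alanine or serine C2 surface mutants tested, KD from 1:1 fit compared with wild-type C2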
human C2 N268A = target: T1, human C2 N268A (human, UniProt P06681 21-752)
T1 sequence: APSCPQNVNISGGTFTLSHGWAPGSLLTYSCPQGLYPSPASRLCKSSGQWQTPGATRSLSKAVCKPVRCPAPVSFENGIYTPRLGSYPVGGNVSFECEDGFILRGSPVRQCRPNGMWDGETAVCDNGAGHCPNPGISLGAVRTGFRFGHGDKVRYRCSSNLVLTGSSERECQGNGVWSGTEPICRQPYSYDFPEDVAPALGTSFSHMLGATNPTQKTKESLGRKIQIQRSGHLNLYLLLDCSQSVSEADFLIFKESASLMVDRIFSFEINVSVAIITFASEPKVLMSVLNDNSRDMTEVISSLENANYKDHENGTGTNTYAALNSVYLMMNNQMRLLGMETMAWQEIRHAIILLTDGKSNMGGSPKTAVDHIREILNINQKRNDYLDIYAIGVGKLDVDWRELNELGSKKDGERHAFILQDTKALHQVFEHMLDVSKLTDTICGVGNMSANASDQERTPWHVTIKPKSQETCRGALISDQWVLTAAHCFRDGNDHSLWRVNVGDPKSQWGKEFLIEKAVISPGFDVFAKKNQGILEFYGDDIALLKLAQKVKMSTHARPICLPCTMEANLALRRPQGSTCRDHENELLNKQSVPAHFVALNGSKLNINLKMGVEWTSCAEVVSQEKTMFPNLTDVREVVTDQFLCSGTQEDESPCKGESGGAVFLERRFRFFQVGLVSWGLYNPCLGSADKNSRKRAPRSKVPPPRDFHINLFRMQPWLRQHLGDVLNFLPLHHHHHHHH

human C2 N380A = target: T2, human C2 N380A (human, UniProt P06681 21-752)
T2 sequence: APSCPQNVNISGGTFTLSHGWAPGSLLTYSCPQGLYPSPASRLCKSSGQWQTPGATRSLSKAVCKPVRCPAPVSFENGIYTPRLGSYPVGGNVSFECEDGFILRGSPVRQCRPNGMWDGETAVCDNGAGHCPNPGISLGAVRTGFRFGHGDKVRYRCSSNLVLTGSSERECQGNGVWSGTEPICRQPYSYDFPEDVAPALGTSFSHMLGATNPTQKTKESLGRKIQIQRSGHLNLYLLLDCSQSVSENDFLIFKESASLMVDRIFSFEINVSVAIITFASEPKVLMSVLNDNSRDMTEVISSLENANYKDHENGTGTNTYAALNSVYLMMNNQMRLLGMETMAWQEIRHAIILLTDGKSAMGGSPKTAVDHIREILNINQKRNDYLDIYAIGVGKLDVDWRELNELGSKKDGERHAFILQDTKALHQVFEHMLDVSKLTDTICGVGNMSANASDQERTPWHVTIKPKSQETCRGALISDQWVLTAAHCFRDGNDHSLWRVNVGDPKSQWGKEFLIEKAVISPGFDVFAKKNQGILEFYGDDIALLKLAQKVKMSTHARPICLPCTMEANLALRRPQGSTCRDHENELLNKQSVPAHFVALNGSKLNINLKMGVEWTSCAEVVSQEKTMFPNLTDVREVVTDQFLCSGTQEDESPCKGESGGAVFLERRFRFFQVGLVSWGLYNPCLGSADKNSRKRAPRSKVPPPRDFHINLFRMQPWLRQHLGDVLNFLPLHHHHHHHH

human C2 D431A = target: T3, human C2 D431A (human, UniProt P06681 21-752)
T3 sequence: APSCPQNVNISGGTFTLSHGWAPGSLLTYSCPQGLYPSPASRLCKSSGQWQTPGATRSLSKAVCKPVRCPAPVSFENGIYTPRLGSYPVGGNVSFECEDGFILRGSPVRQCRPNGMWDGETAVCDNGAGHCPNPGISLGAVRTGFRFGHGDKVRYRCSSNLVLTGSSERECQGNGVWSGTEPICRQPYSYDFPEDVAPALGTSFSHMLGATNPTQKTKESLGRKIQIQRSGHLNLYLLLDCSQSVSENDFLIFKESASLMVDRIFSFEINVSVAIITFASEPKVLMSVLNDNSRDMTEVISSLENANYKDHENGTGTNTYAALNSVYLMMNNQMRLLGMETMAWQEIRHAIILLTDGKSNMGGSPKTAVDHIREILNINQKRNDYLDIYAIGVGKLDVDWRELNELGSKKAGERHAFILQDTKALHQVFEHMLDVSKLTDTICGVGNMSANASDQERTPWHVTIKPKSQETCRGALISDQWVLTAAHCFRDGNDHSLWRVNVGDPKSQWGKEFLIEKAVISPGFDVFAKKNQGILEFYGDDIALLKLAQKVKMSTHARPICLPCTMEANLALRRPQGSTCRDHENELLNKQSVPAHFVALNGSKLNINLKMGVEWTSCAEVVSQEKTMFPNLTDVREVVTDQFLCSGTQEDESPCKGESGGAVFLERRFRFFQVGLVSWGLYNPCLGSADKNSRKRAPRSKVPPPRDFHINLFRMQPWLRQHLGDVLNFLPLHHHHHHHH

human C2 V455A = target: T4, human C2 V455A (human, UniProt P06681 21-752)
T4 sequence: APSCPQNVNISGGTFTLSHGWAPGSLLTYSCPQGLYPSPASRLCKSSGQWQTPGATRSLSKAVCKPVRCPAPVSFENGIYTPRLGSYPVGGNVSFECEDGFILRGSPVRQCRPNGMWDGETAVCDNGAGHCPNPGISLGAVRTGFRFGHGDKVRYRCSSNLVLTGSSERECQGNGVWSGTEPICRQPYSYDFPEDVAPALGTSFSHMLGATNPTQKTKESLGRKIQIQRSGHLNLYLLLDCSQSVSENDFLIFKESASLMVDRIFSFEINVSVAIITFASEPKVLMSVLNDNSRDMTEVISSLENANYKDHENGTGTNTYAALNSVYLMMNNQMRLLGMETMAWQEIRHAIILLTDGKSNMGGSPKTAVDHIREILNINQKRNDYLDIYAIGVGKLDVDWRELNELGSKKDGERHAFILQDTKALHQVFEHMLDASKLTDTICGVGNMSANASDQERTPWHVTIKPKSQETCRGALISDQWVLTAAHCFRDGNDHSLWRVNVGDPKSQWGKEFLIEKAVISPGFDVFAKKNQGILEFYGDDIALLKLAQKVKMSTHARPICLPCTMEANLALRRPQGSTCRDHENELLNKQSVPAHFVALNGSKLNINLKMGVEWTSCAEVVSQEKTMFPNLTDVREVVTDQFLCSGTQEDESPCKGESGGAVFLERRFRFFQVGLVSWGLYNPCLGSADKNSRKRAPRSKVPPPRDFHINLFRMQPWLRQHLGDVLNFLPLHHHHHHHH

B1: RF16-214 (antibody, V domains shown)
VH: EVQLLESGGGLVQPGGSLRLSCAASGFTFSWYQMMWVRQAPGKGLEWVSRIYPSGGGTAYADSVKGRFTISRDNSKNTLYLQMNSLRAEDTAVYYCARDAGYGDNWGQGTLVTVSS
VL: QSALTQPPSVSVSPGQTASITCSGDKLGEKYASWYQQKAGQSPVMVIYQDRKRPSGIPERFSGSNSGNTATLTISGTQAMDEADYYCQAWDTRAVVFGGGTKLTVLG
What does the source list for B1?
Fold diff (human C2 N268A): 2 fold; Fold diff (human C2 N380A): 2 fold; Fold diff (human C2 D431A): 2 fold; Fold diff (human C2 V455A): 0 fold
